Experimental data from patent publication US20140087995A1 (published 2014).
Numbered stars: 1 amine (or outer) side, 2 acyl side, 3 side chain; on linkers, the order of the positions; unused ones are H or OH. Bridge positions count the residues as written; N and C are the ends. Side chains are listed from the residue outwards. Ends that are not written are not given here. * marks the point of attachment. C20 diacid = O=C(O)CCCCCCCCCCCCCCCCCCC(=O)*; γGlu = O=C(O)[C@H](CCC(=O)[*:2])N[*:1]

T1: human amylin receptor (amylin 3(a) receptor: human calcitonin receptor plus RAMP-3) (human, UniProt P30988 25-474; O60896 24-148)
T1 sequence (looked up) 1: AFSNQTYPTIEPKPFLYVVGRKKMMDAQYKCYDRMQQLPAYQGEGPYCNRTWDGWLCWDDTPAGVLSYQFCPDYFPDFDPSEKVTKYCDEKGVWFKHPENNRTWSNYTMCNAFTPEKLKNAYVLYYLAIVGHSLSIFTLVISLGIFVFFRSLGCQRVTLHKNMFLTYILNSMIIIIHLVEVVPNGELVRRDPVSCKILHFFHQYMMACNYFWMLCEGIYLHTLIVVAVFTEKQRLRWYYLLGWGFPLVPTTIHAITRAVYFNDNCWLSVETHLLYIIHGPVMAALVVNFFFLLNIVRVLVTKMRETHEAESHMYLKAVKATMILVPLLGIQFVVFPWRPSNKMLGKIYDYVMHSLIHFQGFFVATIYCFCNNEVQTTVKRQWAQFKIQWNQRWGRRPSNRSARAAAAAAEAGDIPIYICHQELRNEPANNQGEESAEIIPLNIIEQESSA
T1 sequence (looked up) 2: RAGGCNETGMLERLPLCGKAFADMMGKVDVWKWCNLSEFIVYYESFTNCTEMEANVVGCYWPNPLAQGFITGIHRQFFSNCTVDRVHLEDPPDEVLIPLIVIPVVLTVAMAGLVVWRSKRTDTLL

T2: human calcitonin receptor (human, UniProt P30988 25-474)
T2 sequence (looked up): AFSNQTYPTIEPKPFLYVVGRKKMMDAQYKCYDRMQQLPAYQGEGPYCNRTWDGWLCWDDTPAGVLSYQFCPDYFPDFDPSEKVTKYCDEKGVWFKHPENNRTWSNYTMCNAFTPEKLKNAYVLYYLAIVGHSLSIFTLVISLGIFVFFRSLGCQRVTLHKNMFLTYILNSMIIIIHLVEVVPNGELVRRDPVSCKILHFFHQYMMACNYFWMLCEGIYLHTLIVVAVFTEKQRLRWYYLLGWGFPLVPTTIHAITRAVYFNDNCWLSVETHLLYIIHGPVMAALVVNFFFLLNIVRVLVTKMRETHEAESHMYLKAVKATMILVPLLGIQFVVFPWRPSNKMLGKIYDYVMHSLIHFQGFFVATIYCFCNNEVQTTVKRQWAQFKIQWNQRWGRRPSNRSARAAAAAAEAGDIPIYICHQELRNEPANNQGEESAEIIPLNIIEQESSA


Tests used:
[1] = target: T1, human amylin receptor (amylin 3(a) …); experiment: cell-based or functional assay
[2] = target: T2, human calcitonin receptor; experiment: cell-based or functional assay
[3] = target: T1, human amylin receptor (amylin 3(a) …); experiment: SPA competition binding, displacement of 125I-rat amylin, membranes of BHK amylin 3(a)/CRE-luc cells
Summary of the method: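 SPA beads + BHK amylin 3(a)/CRE-luc membranes, 35 ng/μL final; buffer 50 mM Hepes pH 7.4, 1 mM CaCl2, 5 mM MgCl₂, 0.1% OA, 0.02% Tween20. 120 min, 25° C, shaken; scintillation count. IC₅₀ by one-site binding competition fit, taken as receptor affinity.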

Ratio hCT/hAmylin funct. [1]	hAmylin-R funct. EC50 (pM) [1] [pM]	hCTR funct. EC50 (pM) [2] [pM]	IC50 [3] [nM]	Binder
15.3	351	5360	0.695	K([γGlu-C20 diacid])CNTATCATQRLANFLRHSSPNFGAIPSSTNVGSHTY-NH2 (disulfide 2-7; N-terminus assumed; SMILES CC[C@H](C)[C@H](NC(=O)[C@H](C)NC(=O)CNC(=O)[C@H](Cc1ccccc1)NC(=O)[C@H](CC(N)=O)NC(=O)[C@@H]1CCCN1C(=O)[C@H](CO)NC(=O)[C@H](CO)NC(=O)[C@H](Cc1c[nH]cn1)NC(=O)[C@H](CCCNC(=N)N)NC(=O)[C@H](CC(C)C)NC(=O)[C@H](Cc1ccccc1)NC(=O)[C@H](CC(N)=O)NC(=O)[C@H](C)NC(=O)[C@H](CC(C)C)NC(=O)[C@H](CCCNC(=N)N)NC(=O)[C@H](CCC(N)=O)NC(=O)[C@@H](NC(=O)[C@H](C)NC(=O)[C@@H]1CSSC[C@H](NC(=O)[C@@H](N)CCCCNC(=O)CC[C@H](NC(=O)CCCCCCCCCCCCCCCCCCC(=O)O)C(=O)O)C(=O)N[C@@H](CC(N)=O)C(=O)N[C@@H]([C@@H](C)O)C(=O)N[C@@H](C)C(=O)N[C@@H]([C@@H](C)O)C(=O)N1)[C@@H](C)O)C(=O)N1CCC[C@H]1C(=O)N[C@@H](CO)C(=O)N[C@@H](CO)C(=O)N[C@H](C(=O)N[C@@H](CC(N)=O)C(=O)N[C@H](C(=O)NCC(=O)N[C@@H](CO)C(=O)N[C@@H](Cc1c[nH]cn1)C(=O)N[C@H](C(=O)N[C@@H](Cc1ccc(O)cc1)C(N)=O)[C@@H](C)O)C(C)C)[C@@H](C)O, also called compound 60) [N^ε1-[(4S)-4-carboxy-4-(19-carboxynonadecanoylamino)butanoyl]-[Arg17,Pro21,Pro27,His35]-h-amylin]
	425	5580	0.992	K([γGlu-C20 diacid])CNTATCATQRLAEFLRHSSPNFGAIPSSTNVGSHTY-NH2 (disulfide 2-7; N-terminus assumed; SMILES CC[C@H](C)[C@H](NC(=O)[C@H](C)NC(=O)CNC(=O)[C@H](Cc1ccccc1)NC(=O)[C@H](CC(N)=O)NC(=O)[C@@H]1CCCN1C(=O)[C@H](CO)NC(=O)[C@H](CO)NC(=O)[C@H](Cc1c[nH]cn1)NC(=O)[C@H](CCCNC(=N)N)NC(=O)[C@H](CC(C)C)NC(=O)[C@H](Cc1ccccc1)NC(=O)[C@H](CCC(=O)O)NC(=O)[C@H](C)NC(=O)[C@H](CC(C)C)NC(=O)[C@H](CCCNC(=N)N)NC(=O)[C@H](CCC(N)=O)NC(=O)[C@@H](NC(=O)[C@H](C)NC(=O)[C@@H]1CSSC[C@H](NC(=O)[C@@H](N)CCCCNC(=O)CC[C@H](NC(=O)CCCCCCCCCCCCCCCCCCC(=O)O)C(=O)O)C(=O)N[C@@H](CC(N)=O)C(=O)N[C@@H]([C@@H](C)O)C(=O)N[C@@H](C)C(=O)N[C@@H]([C@@H](C)O)C(=O)N1)[C@@H](C)O)C(=O)N1CCC[C@H]1C(=O)N[C@@H](CO)C(=O)N[C@@H](CO)C(=O)N[C@H](C(=O)N[C@@H](CC(N)=O)C(=O)N[C@H](C(=O)NCC(=O)N[C@@H](CO)C(=O)N[C@@H](Cc1c[nH]cn1)C(=O)N[C@H](C(=O)N[C@@H](Cc1ccc(O)cc1)C(N)=O)[C@@H](C)O)C(C)C)[C@@H](C)O)
3.9	288	1120	0.196	K([γGlu-C20 diacid])CNTATCATQRLADFLRHSSPNFGAIPSSTNVGPETY-NH2 (disulfide 2-7; N-terminus assumed; SMILES CC[C@H](C)[C@H](NC(=O)[C@H](C)NC(=O)CNC(=O)[C@H](Cc1ccccc1)NC(=O)[C@H](CC(N)=O)NC(=O)[C@@H]1CCCN1C(=O)[C@H](CO)NC(=O)[C@H](CO)NC(=O)[C@H](Cc1c[nH]cn1)NC(=O)[C@H](CCCNC(=N)N)NC(=O)[C@H](CC(C)C)NC(=O)[C@H](Cc1ccccc1)NC(=O)[C@H](CC(=O)O)NC(=O)[C@H](C)NC(=O)[C@H](CC(C)C)NC(=O)[C@H](CCCNC(=N)N)NC(=O)[C@H](CCC(N)=O)NC(=O)[C@@H](NC(=O)[C@H](C)NC(=O)[C@@H]1CSSC[C@H](NC(=O)[C@@H](N)CCCCNC(=O)CC[C@H](NC(=O)CCCCCCCCCCCCCCCCCCC(=O)O)C(=O)O)C(=O)N[C@@H](CC(N)=O)C(=O)N[C@@H]([C@@H](C)O)C(=O)N[C@@H](C)C(=O)N[C@@H]([C@@H](C)O)C(=O)N1)[C@@H](C)O)C(=O)N1CCC[C@H]1C(=O)N[C@@H](CO)C(=O)N[C@@H](CO)C(=O)N[C@H](C(=O)N[C@@H](CC(N)=O)C(=O)N[C@H](C(=O)NCC(=O)N1CCC[C@H]1C(=O)N[C@@H](CCC(=O)O)C(=O)N[C@H](C(=O)N[C@@H](Cc1ccc(O)cc1)C(N)=O)[C@@H](C)O)C(C)C)[C@@H](C)O)
6.3	405	2540	0.387	K([γGlu-C20 diacid])CNTATCATQRLAEFLRHSSPNFGAIPSSTNVGHETY-NH2 (disulfide 2-7; N-terminus assumed; SMILES CC[C@H](C)[C@H](NC(=O)[C@H](C)NC(=O)CNC(=O)[C@H](Cc1ccccc1)NC(=O)[C@H](CC(N)=O)NC(=O)[C@@H]1CCCN1C(=O)[C@H](CO)NC(=O)[C@H](CO)NC(=O)[C@H](Cc1c[nH]cn1)NC(=O)[C@H](CCCNC(=N)N)NC(=O)[C@H](CC(C)C)NC(=O)[C@H](Cc1ccccc1)NC(=O)[C@H](CCC(=O)O)NC(=O)[C@H](C)NC(=O)[C@H](CC(C)C)NC(=O)[C@H](CCCNC(=N)N)NC(=O)[C@H](CCC(N)=O)NC(=O)[C@@H](NC(=O)[C@H](C)NC(=O)[C@@H]1CSSC[C@H](NC(=O)[C@@H](N)CCCCNC(=O)CC[C@H](NC(=O)CCCCCCCCCCCCCCCCCCC(=O)O)C(=O)O)C(=O)N[C@@H](CC(N)=O)C(=O)N[C@@H]([C@@H](C)O)C(=O)N[C@@H](C)C(=O)N[C@@H]([C@@H](C)O)C(=O)N1)[C@@H](C)O)C(=O)N1CCC[C@H]1C(=O)N[C@@H](CO)C(=O)N[C@@H](CO)C(=O)N[C@H](C(=O)N[C@@H](CC(N)=O)C(=O)N[C@H](C(=O)NCC(=O)N[C@@H](Cc1c[nH]cn1)C(=O)N[C@@H](CCC(=O)O)C(=O)N[C@H](C(=O)N[C@@H](Cc1ccc(O)cc1)C(N)=O)[C@@H](C)O)C(C)C)[C@@H](C)O, also called compound 107)
6.5	421	2740	0.232	K([γGlu-C20 diacid])CNTATCATQRLAEFLRHSSPNFGAIPSSTNVGRETY-NH2 (disulfide 2-7; N-terminus assumed; SMILES CC[C@H](C)[C@H](NC(=O)[C@H](C)NC(=O)CNC(=O)[C@H](Cc1ccccc1)NC(=O)[C@H](CC(N)=O)NC(=O)[C@@H]1CCCN1C(=O)[C@H](CO)NC(=O)[C@H](CO)NC(=O)[C@H](Cc1c[nH]cn1)NC(=O)[C@H](CCCNC(=N)N)NC(=O)[C@H](CC(C)C)NC(=O)[C@H](Cc1ccccc1)NC(=O)[C@H](CCC(=O)O)NC(=O)[C@H](C)NC(=O)[C@H](CC(C)C)NC(=O)[C@H](CCCNC(=N)N)NC(=O)[C@H](CCC(N)=O)NC(=O)[C@@H](NC(=O)[C@H](C)NC(=O)[C@@H]1CSSC[C@H](NC(=O)[C@@H](N)CCCCNC(=O)CC[C@H](NC(=O)CCCCCCCCCCCCCCCCCCC(=O)O)C(=O)O)C(=O)N[C@@H](CC(N)=O)C(=O)N[C@@H]([C@@H](C)O)C(=O)N[C@@H](C)C(=O)N[C@@H]([C@@H](C)O)C(=O)N1)[C@@H](C)O)C(=O)N1CCC[C@H]1C(=O)N[C@@H](CO)C(=O)N[C@@H](CO)C(=O)N[C@H](C(=O)N[C@@H](CC(N)=O)C(=O)N[C@H](C(=O)NCC(=O)N[C@@H](CCCNC(=N)N)C(=O)N[C@@H](CCC(=O)O)C(=O)N[C@H](C(=O)N[C@@H](Cc1ccc(O)cc1)C(N)=O)[C@@H](C)O)C(C)C)[C@@H](C)O)
